Measured values published in patent publication US20210079084A1 (OPSIDIO, published 2021).
Changes are numbered by the printed parent chain. Each block holds one binder with its values, some of them ahead of it.

What was measured:
[1] = target: T1, human stem cell factor isoform SCF248 (human, UniProt P21583 26-273); test: binding score, flow cytometry on S1/S14 hSCF248 cells
T1 construct: also called hSCF248; soluble SCF

[2] = target: T2, human stem cell factor isoform SCF220 (human, UniProt P21583-2 26-245); test: flow cytometry, directly labelled antibody on S1/S14 hSCF220 cells
T2 construct: whole, on cells; also called hSCF220; membrane SCF
T2 sequence (P21583 other isoform, or with tags, fused parts or gaps): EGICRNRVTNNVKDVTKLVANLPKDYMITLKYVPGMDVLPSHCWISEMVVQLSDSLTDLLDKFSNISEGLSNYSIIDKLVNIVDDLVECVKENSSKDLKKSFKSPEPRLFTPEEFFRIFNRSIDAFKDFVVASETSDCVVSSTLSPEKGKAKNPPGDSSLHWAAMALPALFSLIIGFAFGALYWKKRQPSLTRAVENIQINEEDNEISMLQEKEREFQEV
Experimental: Binding of the labeled antibody to the cells was assessed by flow cytometry.

[3] = target: T2, human stem cell factor isoform SCF220; test: flow cytometry on S1/S14 hSCF220 cells
[4] = target: T1, human stem cell factor isoform SCF248; test: flow cytometry on S1/S14 hSCF248 cells; printed as BC50 (50% maximal binding)
[5] = target: T2, human stem cell factor isoform SCF220; test: flow cytometry on the SCF220-expressing cell line

T1 sequence (P21583 26-273 limits assumed): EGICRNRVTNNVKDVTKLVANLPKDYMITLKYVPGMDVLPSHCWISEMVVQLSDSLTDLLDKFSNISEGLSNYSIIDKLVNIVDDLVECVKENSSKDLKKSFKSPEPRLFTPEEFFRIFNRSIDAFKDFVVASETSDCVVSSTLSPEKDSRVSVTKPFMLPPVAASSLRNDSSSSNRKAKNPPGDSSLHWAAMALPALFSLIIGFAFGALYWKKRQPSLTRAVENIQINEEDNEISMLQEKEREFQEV

- binding result [1]: binds
B1: 5H10 VH2/VK2 (antibody, V domains shown)
VH: QVQLVQSGAEVKKPGSSVKISCKSSGYAFSSYWMNWVKQRPGQGLEWIGQIYPGDGDTHYNGKFKGKATLTADKSTSTAYMELSSLRSEDTAVYFCSSSNWVGSYWGQGTLVTVSS
VL: DVVMTQSPLSLPVTLGQPASISCKSSQSLLESDGKTYLNWLQQRPGQSPRRLIYLVSRLDSGVPDRFTGSGSGTDFTLKISRVEAEDVGVYYCWQGTHLPQTFGGGTKVEIK
notes: Humanized; Only variable regions are tied to the name

- binding result [2]: no binding
B2: murine 5H10 antibody (antibody, V domains shown)
VH: B1 VH with V5Q, V11L, K12V, K13R, T76S, E82Q, S85R, R87T, T91S, S116A
VL: not shown
notes: Murine monoclonal from a hybridoma, kappa light chain; also called OpSCF; murine parent 5H10

- binding result [3]: no binding
B3: 5H10 VH0/VK0 (chimeric 5H10) (antibody, V domains shown)
VH: B1 VH with V5Q, V11L, K12V, K13R, T76S, E82Q, S85R, R87T, T91S, S116A
VL: not shown
notes: also called chimeric antibody 5H10

- binding result [3]: no binding
- EC50 [4]: 0.9 µg/mL
B4: 5H10 VH3/VK3 (antibody, V domains shown)
VH: B1 VH with I20V, K38R
VL: B1 VL with T68S
notes: as for B1

- binding result [5]: no binding
B5: 5H10 VH1/VK3 (antibody, V domains shown)
VH: B1 VH with V11L, R87T, T91S
VL: B1 VL with T68S
notes: as for B1

- binding result [1]: binds
B6: 5H10 VH1/VK1 (antibody, V domains shown)
VH: B1 VH with V11L, R87T, T91S
VL: B1 VL with S10T, P12S
notes: as for B1

- binding result [3]: no binding
B7: 5H10 VH4/VK2 (antibody, V domains shown)
VH: B1 VH with I20V, K38R, K67R, A68V, L70I
VL: B1 VL
notes: as for B1

- binding result [3]: no binding
B8: 5H10 VH5/VK3 (antibody, V domains shown)
VH: B1 VH with I20V, K38R, K65Q, K67R, A68V, L70I, F95Y
VL: B1 VL with T68S
notes: as for B1

- binding result [3]: no binding
B9: 5H10 VH5/VK2 (antibody, V domains shown)
VH: B1 VH with I20V, K38R, K65Q, K67R, A68V, L70I, F95Y
VL: B1 VL
notes: as for B1

- binding result [3]: no binding
B10: 5H10 VH3/VK2 (antibody, V domains shown)
VH: B1 VH with I20V, K38R
VL: B1 VL
notes: as for B1

- binding result [3]: no binding
B11: 5H10 VH4/VK3 (antibody, V domains shown)
VH: B1 VH with I20V, K38R, K67R, A68V, L70I
VL: B1 VL with T68S
notes: as for B1

- binding result [5]: no binding
B12: 5H10 VH2/VK3 (antibody, V domains shown)
VH: B1 VH
VL: B1 VL with T68S
notes: as for B1

- binding result [1]: binds
B13: 5H10 VH1/VK2 (antibody, V domains shown)
VH: B1 VH with V11L, R87T, T91S
VL: B1 VL
notes: as for B1
